Reference: patent publication US20160347850A1 (AbbVie / Abbott, published 2016)

How the values were obtained:
Human CD40 [1] = target: T1, Human CD40 (human, UniProt P25942 21-277); assay: Alexa 647 labeled Ab102 binding to CD40 on the surface of human B cells
T1 construct: On HEK cells (FACS, reporter line), on primary human B cells and on human monocytes; also called huCD40; hCD40
Protocol: (§1) The cross-reactivity of Ab102 with CD40 from various species was tested. […] Binding of Ab102 to mouse, rat, and rabbit CD40 could not be detected at concentrations up to 30 μg/mL (200 nM).

mouse CD40 = target: T2, mouse CD40 (mouse, UniProt P27512 20-289); assay: Alexa 647 labeled Ab102 on the surface of B cells
T2 construct: whole, on cells
T2 sequence (looked up): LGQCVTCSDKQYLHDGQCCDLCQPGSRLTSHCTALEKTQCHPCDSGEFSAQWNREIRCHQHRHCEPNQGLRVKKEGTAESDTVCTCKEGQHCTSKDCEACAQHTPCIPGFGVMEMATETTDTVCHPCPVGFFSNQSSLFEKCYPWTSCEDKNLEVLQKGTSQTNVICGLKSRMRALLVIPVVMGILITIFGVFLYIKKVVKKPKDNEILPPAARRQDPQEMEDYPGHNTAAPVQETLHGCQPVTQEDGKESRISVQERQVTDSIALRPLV

rat CD40 = target: T3, rat CD40 (rat, UniProt A6JXD6 20-289); assay: Alexa 647 labeled Ab102 on the surface of B cells
T3 sequence: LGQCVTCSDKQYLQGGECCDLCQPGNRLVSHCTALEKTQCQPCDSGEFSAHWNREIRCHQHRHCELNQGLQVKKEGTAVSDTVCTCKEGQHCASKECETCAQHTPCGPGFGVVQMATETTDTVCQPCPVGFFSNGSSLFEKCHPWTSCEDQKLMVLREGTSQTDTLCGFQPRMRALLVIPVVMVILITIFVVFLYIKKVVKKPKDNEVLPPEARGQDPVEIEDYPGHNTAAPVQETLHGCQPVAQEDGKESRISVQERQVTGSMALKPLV

cyno CD40 = target: T4, cyno CD40 (cynomolgus monkey, UniProt G7PG38 21-278); assay: Alexa 647 labeled Ab102 binding to CD40 on the surface of cynomolgus monkey B cells
T4 construct: whole, on cells; also called cyCD40; cynomolgus monkey CD40
Protocol: as §1

Human CD40 [2] = target: T1, Human CD40; assay: cell-based or functional assay

T1 sequence (P25942 21-277 limits assumed): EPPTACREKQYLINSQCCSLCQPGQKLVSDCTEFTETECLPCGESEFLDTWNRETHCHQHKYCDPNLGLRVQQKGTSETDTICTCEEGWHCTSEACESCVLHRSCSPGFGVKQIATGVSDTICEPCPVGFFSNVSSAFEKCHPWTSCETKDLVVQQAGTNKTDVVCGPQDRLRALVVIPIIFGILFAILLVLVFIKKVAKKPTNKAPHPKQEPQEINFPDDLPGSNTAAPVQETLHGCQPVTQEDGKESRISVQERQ

B1: Ab102 (antibody, human IgG1, kappa, L234A L235A, V domains shown)
VH: EVQLVESGGGLVKPGGSLRLSCAASGFTFSDYGMNWVRQAPGKGLEWIAYISSGRGNIYYADTVKGRFTISRDNAKNSLYLQMNSLRAEDTAVYYCARSWGYFDVWGQGTTVTVSS
VL: DIVMTQSPDSLAVSLGERATINCKSSQSLLNRGNQKNYLTWFQQKPGQPPKLLIYWASTRESGVPDRFSGSGSGTDFTLTISSLQAEDVAVYYCQNDYTYPLTFGQGTKLEIKR
notes: Humanized IgG1/kappa with L234A, L235A, T250Q, M428L (LALA-QL); also called VL huAbv1/VH huAb1v1CDR2v7/hCg1/k-LALA-QL; mAb CD40 Ab102 [hu IgG1/k]; LALA QL
Human CD40 [1]
  EC50: 0.89 nM
Mouse CD40
  binding result: no binding (tested: 30 µg/mL (200 nM))
Rat CD40
  binding result: no binding (tested: 30 µg/mL (200 nM))
Cyno CD40
  EC50: 1.4 nM
Human CD40 [2]
  Monocyte Activation Assay, Antagonist IC50 (nM), Experiment 1: 0.06 nM
  Monocyte Activation Assay, Antagonist IC50 (nM), Experiment 2: 0.23 nM
  Monocyte Activation Assay, Antagonist IC50 (nM), Experiment 3: 0.11 nM
